Bridge positions count the residues as written; N and C are the ends. Ends that are not written are not given here.

This assay concerns the target T1, human IL-2Rβ (CD122 protein, Fc Tag) (27-239) (human, UniProt P14784 27-239).
T1 construct: range 27-239; Bought protein; also called hu-IL-2Rβ subunit; IL-2Rβ subunit; not shown: Fc tag of the bought protein
T1 sequence (looked up): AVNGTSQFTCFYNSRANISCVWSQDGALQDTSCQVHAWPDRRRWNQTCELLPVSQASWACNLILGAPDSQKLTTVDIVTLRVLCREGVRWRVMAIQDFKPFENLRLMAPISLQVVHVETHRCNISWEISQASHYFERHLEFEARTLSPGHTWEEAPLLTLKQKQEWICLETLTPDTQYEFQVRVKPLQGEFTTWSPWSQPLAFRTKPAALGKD
Nature of the assay: phage ELISA competition. A digest of the protocol:
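Competitive binding ELISA in which a phage tracer competes with test ligands for human IL-2Rβ-Fc; IC50 is derived from the absorbance signal across the ligand dilution series. Without washing, 50 μL of phage tracer was added for 45 min at 4° C. Bound phage was detected with TMB for 1 to 15 min at 25° C, followed by stop solution and absorbance at 450 nm.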
(In general: An ELISA detects its analyte on a solid surface through an enzyme-linked reagent.)

What is called IC50 is the concentration at which inhibition is half-maximal. High values mean lower potency, low ones higher potency. TGEWWPCWVAEVGELCDLERGP [SEQ ID NO 2771] showed an IC50 below 100 µM.

Molecule WYPCEFAQLGELCDLLPFPYPA [SEQ ID NO 2779] gave an IC50 below 100 µM.

Molecule EISNWFLDCMFADVGDLCDL [SEQ ID NO 2785] displayed an IC50 below 100 µM.

WWPCWIAQVGELCDLDGPGRPT [SEQ ID NO 2767]: the IC50 was below 100 µM.

For the molecule WWPCWIADLGELCDLEGPPRGR (disulfide 4-13 (inferred)) [SEQ ID NO 2783], the IC50 was below 100 µM.

In turn, LQIRKLWACRIDLVGPFCLL (disulfide 9-18 (inferred)) [SEQ ID NO 2774] displayed an IC50 below 100 µM.

WWPCWIAQVGELCDLEEESRES [SEQ ID NO 2781] gave an IC50 below 100 µM.

As for AEYSGRYDCYIAKVGELCDI [SEQ ID NO 2775], the 50% inhibitory concentration (IC50) is below 100 µM.

With AQVWYPCWLAKVGELCDLDQWN (disulfide 7-16 (inferred)) [SEQ ID NO 2786], the IC50 is below 100 µM.

NRWWHPCWMARVGELCDLEPDA [SEQ ID NO 2777] had a half-inhibitory concentration (IC50) below 100 µM.

The molecule KWAWNPCYIARLGELCDLVEPE [SEQ ID NO 2782] yielded an IC50 below 100 µM.

On to WWPCWVAKLGELCDLEGDASRV [SEQ ID NO 2778], for which the IC50 is below 100 µM.

WRILWMQQCWRSHVVNQCAL [SEQ ID NO 2769] returned an IC50 below 100 µM.

Consider PTLITWYDCLFAEVGELCDM [SEQ ID NO 2784], for which the IC50 was below 100 µM.

Take FHPCWRALLGELCDLETALGPS [SEQ ID NO 2773]: the IC50 is below 100 µM.

Molecule SWRFLWQDCGRAHVGELCDL [SEQ ID NO 2776] gave an IC50 below 100 µM.

For ARTQGWYDCLFAQVGELCDL [SEQ ID NO 2772], the IC50 is below 100 µM.

Consider RLVYDCLFAQVGDLCEVIS [SEQ ID NO 2768], for which the 50% inhibitory concentration (IC50) is below 100 µM.

FGGKMDWYPCWIANLGELCDLK [SEQ ID NO 2787]: the IC50 is below 100 µM.

Molecule SYMHDCFMAQVGDLCDRFIS (disulfide 6-15 (inferred)) [SEQ ID NO 2780] gave an IC50 below 100 µM.

B1: SEQ ID NO 2827 (peptide)
peptide: CYMHDCFMAQVGDLCDRFIS
modifications: not fully specified (bridges); also: disulfide between two of the three cysteines, pairing not given here
The molecule B1 registered an IC50 below 100 µM.

The molecule WGGRYWCWMAKLGDLCDLEDEW [SEQ ID NO 2766] came in with an IC50 below 100 µM.

Consider WYPCWIAQVGELCDLDEVSHGR [SEQ ID NO 2770], for which the 50% inhibitory concentration (IC50) is below 100 µM.

The record behind these values is patent US20220119492A1 (MEDIKINE, published 2022).
